B1: DNA repair protein XRCC4 (Homo sapiens), Q13426 (parent)
chain: MERKISRIHLVSEPSITHFLQVSWEKTLESGFVITLTDGHSAWTGTVSESEISQEADDMAMEKGKYVGELRKALLSGAGPADVYTFNFSKESCYFFFEKNLKDVSFRLGSFNLEKVENPAEVIRELICYCLDTIAENQAKNEHLQKENERLLRDWNDVQGRFEKCVSAKEALETDLYKRFILVLNEKKTKIRSLHNKLLNAAQEREKDIKQEGETAICSEMTADRDPVYDESTDEESENQTDLSGLASAAVSKDDSIISSLDVTDIAPSRKRRQRMQRNLGTEPKMAPQENQLQEKENSRPDSSLPETSKKEHISAENMSLETLRNSSPEDLFDEI

Variants of: B1
Conditions: with pnkp_human PNKP

Row | Variant | effect of a mutation on the interaction
1 | T233A | disrupting interaction
